Earlier results in patent US11033499B2, “Tablet formulation comprising a GLP-1 peptide and a delivery agent” (priority 2012, dated 2021).

Conditions: published studies with SNAC and human GLP-1

## human GLP-1: human GLP-1 given with SNAC in published studies
  Tmax: 20 to 30 min
